The results in this text go back to patent US20230312724A1 (KADMON, published 2023).

A word on the EC50: it is the concentration at which the effect is half-maximal. A word on the Kd: it is the free concentration of one partner at which half of the binding sites on the other are occupied at equilibrium, for simple one-to-one binding. Lower therefore signals higher affinity. The EC50 (read off the curve) is the concentration giving half of the maximal effect.

Assay [1] has as its target T1, hB7-H4 (soluble human B7-H4, construct not named) (human, UniProt Q7Z7D3 25-259, limits assumed).
T1 construct: also called soluble hB7-H4
T1 sequence: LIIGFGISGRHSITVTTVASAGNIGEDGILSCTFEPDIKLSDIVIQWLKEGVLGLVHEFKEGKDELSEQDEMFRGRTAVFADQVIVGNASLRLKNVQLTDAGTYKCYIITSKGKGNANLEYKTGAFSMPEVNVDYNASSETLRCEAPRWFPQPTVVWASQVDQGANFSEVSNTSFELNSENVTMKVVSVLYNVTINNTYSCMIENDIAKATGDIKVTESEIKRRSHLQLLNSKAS
Nature of the assay: ELISA, hB7-H4. In short, it runs like this: (§1)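 Human or mouse B7-H4-Fc (or His-tagged) at about 1-2 μg/ml was coated overnight at 4° C and blocked with 3% milk. Serially diluted antibodies were added for 1-1.5 h at RT and detected with HRP anti-human Fab and TMB, reading OD450. EC50 was obtained from the OD450 vs. concentration curve.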
(In an ELISA, binding on a coated surface is turned into a signal by an enzyme label.)

The target in assay [2] is T1, hB7-H4 (soluble human B7-H4, construct …). Nature of the assay: SPR (Biacore). The procedure, abridged:
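Ligands (human B7-H4-Fc, human B7-H4-his, mouse B7-H4-Fc) were amine-coupled to CM5 chips at 50-100 RU. Analyte was injected at 100 nM to 0.1 nM in HBS-EP, pH 7.4, at 25 °C, with 180 s association and 1000 or 1200 s dissociation. Kinetics were fitted to a 1:1 Langmuir model.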
In general terms: SPR reads the build-up and loss of mass on a sensor chip optically.

Assay [3] has as its target T2, mB7-H4 (soluble mouse B7-H4, construct not named) (mouse, UniProt Q7TSP5 25-257, limits assumed).
T2 sequence: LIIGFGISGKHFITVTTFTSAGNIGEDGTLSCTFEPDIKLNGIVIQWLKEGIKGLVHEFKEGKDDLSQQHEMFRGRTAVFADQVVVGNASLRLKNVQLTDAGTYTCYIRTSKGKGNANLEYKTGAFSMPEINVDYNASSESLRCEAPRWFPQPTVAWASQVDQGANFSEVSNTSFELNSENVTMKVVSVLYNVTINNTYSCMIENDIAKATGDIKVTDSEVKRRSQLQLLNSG
Nature of the assay: ELISA and SPR (Biacore). As to the method: (§2) About 1-2 μg/ml of human or mouse B7-H4-Fc (or his-tagged) was immobilized on ELISA plates (Immuno 2HB, Thermo scientific, cat #3455) at 4° C. overnight. After blocking the plates with 3% PBS+milk, serial diluted antibodies were added to the blocked plates and incubated at RT for 1-1.5 h. After washing the plates with PBS-T (0.05%), horse radish peroxidase (HRP)-conjugated antibody targeting the hFab was added to the plate. Signals were developed by adding 3,3′,5,5′-Tetramethylbenzidine (TMB (followed 1N of H₂SO₄ to stop the reaction. The OD at 450 nm was read by ELISA plate reader (Infinite M1000 from TECAN). GraphPad from Prism was used to plot OD450 vs. antibody concentration curve and to calculate the EC50 values.
Surface plasmon resonance experiments were performed using a Biacore T200 instrument equipped with CM5 sensor chips. The system was equilibrated in running buffer HBS-EP pH 7.4. The ligands were immobilized using amine-coupling chemistry. The surfaces of flow cells one through four were activated for 5 min using an amine coupling kit at a flow rate of […]. The ligands (human B7-H4-Fc, human B7-H4-hism and mouse B7-H4-Fc; at a concentration of 5 μg/ml in 10 mM sodium acetate, pH 5.0) were immobilized at a density of 50-100 RU on flow cell 2, 3, 4 respectively. Flow cell 1 was left blank to serve as a reference surface. All flow cell surfaces were blocked with a 5 min injection of 1 M ethanolamine, pH 8.0. To collect kinetic binding data, the respective analyte (diluted in 1×HBS-EP buffer, pH 7.4) was injected over the four flow cells at concentrations of 100 nM to 0.1 nM at a flow rate of […] and at a temperature of 25° C. The protein complex was allowed to associate and dissociate for 180 seconds and 1000 or 1200 seconds, respectively. The surfaces were regenerated with a 30 second injection of 1.5 M NaCl/0.05 M NaOH. The data were fit to a simple 1:1 interaction model using the Langmuir fit option available within the Biaevaluaton software

Assay [4] deals with T3, human B7-H4 expressed on cells (human, UniProt Q7Z7D3 25-282).
T3 construct: Transfected CHO cells or tumor cell lines that carry hB7-H4; also called cellular hB7-H4
T3 sequence: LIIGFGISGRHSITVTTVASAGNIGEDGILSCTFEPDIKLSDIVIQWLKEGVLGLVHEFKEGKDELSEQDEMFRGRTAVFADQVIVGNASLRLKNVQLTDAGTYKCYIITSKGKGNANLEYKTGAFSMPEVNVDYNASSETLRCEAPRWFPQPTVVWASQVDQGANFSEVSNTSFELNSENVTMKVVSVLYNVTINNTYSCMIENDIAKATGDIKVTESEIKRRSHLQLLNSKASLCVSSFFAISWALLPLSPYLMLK
Nature of the assay: flow cytometry, SK-BR-3 cells. The procedure, abridged:
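Cells at 1×10⁶ cells/ml in ice-cold FACS buffer incubated with serially diluted antibodies or fusion proteins for 1 h at 4 °C. After three washes, secondary antibody (1:200) applied 30 min at 4 °C in the dark; binding read by flow cytometry.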

The target of a further assay is T4, mouse B7-H4-his (mouse, UniProt Q7TSP5 25-257).
T4 construct: also called mB7-H4-his; mB7-H4-His; not shown: his tag
T4 sequence: T2 sequence
Nature of the assay: ELISA, coated mB7-H4-his. Here is the method:
as §2

In assay [5] the target is T5, IgV domain of mouse B7-H4-Fc (mouse; human).
T5 construct: also called mB7-H4 IgV domain
The assay is described as follows: ELISA, coated mB7-H4 IgV domain. The procedure, abridged:
as §1

Assay [6] addresses T6, mouse B7-H4 expressed on cells (mouse, UniProt Q7TSP5 25-257).
T6 construct: also called cellular mB7-H4; mB7-H4/CT26
T6 sequence: T2 sequence
Nature of the assay: flow cytometry, CHO cells expressing mB7-H4. On the technique in general: Flow cytometry measures light scatter and fluorescence of single cells or particles in a stream.

Assay [7] has as its target T7, mouse B7-H4-Fc (mouse; human).
T7 construct: also called mB7-H4-Fc; mB7-H4-hFc
Nature of the assay: ELISA, coated mB7-H4-Fc (title on the sheet: Binding to mB7-H7-Fc). Here is the method:
as §2

For assay [8], the target named is T8, IgC domain of mouse B7-H4-Fc (mouse; human).
T8 construct: also called mB7-H4 IgC domain
The assay is described as follows: ELISA, coated mB7-H4 IgC domain (title on the sheet: IgC domain of mB7H4). Here is the method: as §2

For assay [9], the target named is T9, IgC domain of human B7-H4-Fc (human).
T9 construct: also called hB7-H4 IgC domain
Nature of the assay: ELISA, coated hB7-H4 IgC domain (title on the sheet: IgC domain of hB7H4). As to the method:
as §2

In assay [10] the target is T10, human B7-H4-Fc (human).
T10 construct: also called hB7-H4-Fc; hB7-H4 Fc
The assay is described as follows: SPR (Biacore).

The target of the next assay is T11, human B7-H4-his (human, UniProt Q7Z7D3 25-259).
T11 construct: also called hB7-H4-his; hB7-H4 his; not shown: his tag
T11 sequence: T1 sequence
The assay is described as follows: SPR (Biacore).

The target of assay [11] is T7, mouse B7-H4-Fc. Nature of the assay: ELISA, coated mB7-H4-Fc. As to the method: (§3) ELISA experiments were performed to determine binding to hB7-H4-Fc (FIG. 3A), hB7-H4-his (FIG. 3B), mB7-H4-Fc (FIG. 3C), and hB7-H4 IgV domain (FIG. 3D). Flow cytometry experiments were performed to determine binding to CHO cells expressing hB7-H4 (FIG. 3E) or mB7-H4 (FIG. 3F).
as §2

Assay [12] has as its target T10, human B7-H4-Fc. Nature of the assay: ELISA, coated hB7-H4-Fc. Here is the method: (§4) ELISA experiments were performed to determine binding to hB7-H4-Fc (FIG. 4A), hB7-H4-his (FIG. 4B), hB7-H4 IgV domain (FIG. 4C), and mB7-H4 IgV domain (FIG. 4D). Flow cytrometry experiments were performed to determine binding to CHO cells expressing hB7-H4 (FIG. 4E) or mB7-H4 (FIG. 4F). […] A cross-reactive IgV binding antibody was used as a control.
as §2

The target in assay [13] is T2, mB7-H4 (soluble mouse B7-H4, construct …). The assay is described as follows: summary of ELISA and flow cytometry.
Assay [14] concerns the target T12, IgV domain of human B7-H4-Fc (human).
T12 construct: also called hB7-H4 IgV domain
Nature of the assay: ELISA, coated hB7-H4 IgV domain. As to the method: as §4, §2

Assay [15] addresses T5, IgV domain of mouse B7-H4-Fc. Nature of the assay: ELISA, coated mB7-H4 IgV domain. Here is the method: as §4, §2
This is another data set of the same source.

Assay [16] has as its target T6, mouse B7-H4 expressed on cells. The assay is described as follows: flow cytometry, CHO cells expressing mB7-H4. As to the method:
as §3
Cells were harvested, washed once, and then re-suspended to the concentration of 1×10⁶ cells/ml in ice cold FACS Buffer. 25 μl of cell suspension was added to each well of a 96-well round-bottom microliter plate. Serially diluted antibodies or fusion proteins were added to each well and incubated for 1 hour at 4° C. Cells were washed three times by centrifugation at 1500 rpm for 5 minutes, and then stained with secondary antibody (1:200 dilution) for 30 min at 4° C. in the dark. Cells were washed once, re-suspended in 100 μl PBS buffer and then analyzed using Guava Flow Cytometry EasyCyte system.
The source holds these as a separate data set.

Residue numbers refer to the chain shown, from its start. Read-outs that look alike come from different tables or passages of the source.

T7 sequence (chain, as listed by the source): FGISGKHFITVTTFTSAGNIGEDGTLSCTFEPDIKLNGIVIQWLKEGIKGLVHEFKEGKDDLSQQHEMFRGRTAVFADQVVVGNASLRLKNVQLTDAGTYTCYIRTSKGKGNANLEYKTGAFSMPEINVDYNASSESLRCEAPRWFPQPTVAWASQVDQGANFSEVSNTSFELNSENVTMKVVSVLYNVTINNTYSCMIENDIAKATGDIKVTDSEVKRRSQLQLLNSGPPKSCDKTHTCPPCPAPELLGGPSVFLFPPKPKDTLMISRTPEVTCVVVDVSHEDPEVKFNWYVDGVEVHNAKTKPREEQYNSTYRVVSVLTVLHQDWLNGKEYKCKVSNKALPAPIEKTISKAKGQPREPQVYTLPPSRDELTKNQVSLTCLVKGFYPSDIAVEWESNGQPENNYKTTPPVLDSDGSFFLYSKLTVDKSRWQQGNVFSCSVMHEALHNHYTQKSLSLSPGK
T5 sequence (chain, as listed by the source): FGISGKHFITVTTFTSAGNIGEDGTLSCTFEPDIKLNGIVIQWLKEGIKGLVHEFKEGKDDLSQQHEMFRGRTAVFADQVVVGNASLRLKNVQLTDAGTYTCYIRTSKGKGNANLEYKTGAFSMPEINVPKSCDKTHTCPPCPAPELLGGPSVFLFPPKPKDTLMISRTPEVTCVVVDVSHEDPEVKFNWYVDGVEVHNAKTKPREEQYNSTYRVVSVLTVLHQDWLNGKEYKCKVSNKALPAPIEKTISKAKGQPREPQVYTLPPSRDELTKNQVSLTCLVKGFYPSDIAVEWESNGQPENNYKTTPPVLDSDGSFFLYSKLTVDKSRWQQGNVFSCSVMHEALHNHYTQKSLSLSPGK
T8 sequence (chain, as listed by the source): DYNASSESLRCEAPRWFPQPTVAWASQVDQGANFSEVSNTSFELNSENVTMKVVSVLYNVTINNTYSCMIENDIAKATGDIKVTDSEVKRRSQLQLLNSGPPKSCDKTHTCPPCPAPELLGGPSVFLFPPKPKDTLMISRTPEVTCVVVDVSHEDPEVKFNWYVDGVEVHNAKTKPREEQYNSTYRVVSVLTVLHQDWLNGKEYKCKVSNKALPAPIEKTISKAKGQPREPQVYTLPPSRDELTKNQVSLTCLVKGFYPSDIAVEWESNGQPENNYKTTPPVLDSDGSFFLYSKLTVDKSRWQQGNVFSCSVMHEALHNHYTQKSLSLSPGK
T10 sequence (chain, as listed by the source): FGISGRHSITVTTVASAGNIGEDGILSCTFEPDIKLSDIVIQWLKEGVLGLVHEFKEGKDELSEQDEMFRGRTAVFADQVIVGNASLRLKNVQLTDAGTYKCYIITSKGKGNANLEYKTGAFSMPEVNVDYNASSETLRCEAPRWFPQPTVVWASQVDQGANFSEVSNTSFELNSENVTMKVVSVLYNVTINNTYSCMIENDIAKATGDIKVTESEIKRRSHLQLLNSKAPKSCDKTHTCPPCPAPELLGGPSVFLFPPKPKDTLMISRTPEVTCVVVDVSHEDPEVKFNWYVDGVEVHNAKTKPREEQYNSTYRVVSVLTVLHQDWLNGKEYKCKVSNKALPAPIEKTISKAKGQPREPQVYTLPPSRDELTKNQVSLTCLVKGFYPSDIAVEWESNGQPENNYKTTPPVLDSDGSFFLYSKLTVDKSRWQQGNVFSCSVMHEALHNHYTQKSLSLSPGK
T9 sequence (chain, as listed by the source): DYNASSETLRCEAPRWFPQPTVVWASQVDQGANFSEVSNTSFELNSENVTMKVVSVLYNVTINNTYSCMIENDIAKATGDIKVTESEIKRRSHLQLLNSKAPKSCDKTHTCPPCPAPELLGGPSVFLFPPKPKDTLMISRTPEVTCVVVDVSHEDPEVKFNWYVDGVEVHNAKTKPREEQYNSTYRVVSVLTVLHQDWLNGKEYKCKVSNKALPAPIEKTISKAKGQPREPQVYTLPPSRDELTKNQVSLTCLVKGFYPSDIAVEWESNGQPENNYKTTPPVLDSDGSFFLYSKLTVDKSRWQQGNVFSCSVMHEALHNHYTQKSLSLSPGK
T12 sequence (chain, as listed by the source): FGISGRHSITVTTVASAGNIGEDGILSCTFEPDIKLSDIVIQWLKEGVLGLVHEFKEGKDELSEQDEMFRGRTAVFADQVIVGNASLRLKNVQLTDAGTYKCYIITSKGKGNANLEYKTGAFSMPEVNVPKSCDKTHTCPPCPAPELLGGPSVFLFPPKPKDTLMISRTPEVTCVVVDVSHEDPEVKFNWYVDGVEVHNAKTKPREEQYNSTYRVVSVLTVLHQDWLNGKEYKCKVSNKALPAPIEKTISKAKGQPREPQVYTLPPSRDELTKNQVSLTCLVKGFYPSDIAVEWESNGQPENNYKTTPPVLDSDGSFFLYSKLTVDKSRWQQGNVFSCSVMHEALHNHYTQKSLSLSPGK

B1: 1D3/45A2 (antibody, human IgG1, V domains shown)
VH: EVQLLESGGGLVQPGGSLRLSCAASGFTFNTHAMHWVRQAPGKGLEWVSAISGSGGSTYYADSVKGRFTISRDISKNTLYLQMNSLRAEDTAVYYCARLLGRFGEYGMDVWGQGTTVTVSS
VL: DIQMTQSPSSLSASVGDRVTITCRASQNIYTWLAWYQQKPGKAPKLLIYDATNLPTGVPSRFSGSGSGTDFTLTISSLQPEDFATYYCQQSYSTRWTFGGGTKVEIK
notes: 1D3 VH with 45A2 VL
Take B1: the figures for the EC50 in assay [1] and in [4] were 0.041 nM and 52.1 nM, respectively. The molecule further had a Kd in assay [2] of 0.317 nM. In addition, the binding result is reported as “no binding” in assay [3]; “no binding (tested: axis value -8 (labelled log nM))” with mouse B7-H4-his; “no binding (tested: axis value -8 (labelled log nM))” in [5]; “no binding (tested: log 2 nM (100 nM))” in [6]; “no binding (tested: axis value -8 (log scale labelled nM))” with mouse B7-H4-Fc [7]; “no binding (tested: axis value -8 (labelled log nM))” in [8]. Moreover, in [9], the binding result was “no binding (tested: axis value -8 (labelled log nM))”.

B2: 1D3/47B2 (antibody, human IgG1, V domains shown)
VH: B1 VH
VL: B1 VL with N28T, I29V, P55A, R95S
notes: 1D3 VH with 47B2 VL
Consider B2, for which the values for the EC50 in assay [1] and in assay [4] were 0.078 nM and 36 nM, respectively. For the same molecule, binding in assay [2] was put at a Kd of 0.209 nM. Also, the binding result in assay [3] is given as “no binding”; with mouse B7-H4-his, “no binding (tested: axis value -8 (labelled log nM))”; in assay [5] it was “no binding (tested: axis value -8 (labelled log nM))”; in [6], “no binding (tested: log 2 nM (100 nM))”; in the assay with mouse B7-H4-Fc [7] it was “no binding (tested: axis value -8 (log scale labelled nM))”; in assay [8] it was “no binding (tested: axis value -8 (labelled log nM))”. For the same molecule, the binding result in assay [9] is given as “no binding (tested: axis value -8 (labelled log nM))”.

B3: 1D3/1D3 (antibody, human IgG1, V domains shown)
VH: B1 VH
VL: B1 VL with Q27R, N28S, T52S, N53T, P55Q, T56S, R95P, W96Y
As for B3, the results for the Kd (in the assay with human B7-H4-Fc [10]; with human B7-H4-his; in [2]) were 0.805 nM, 0.551 nM and 0.775 nM, respectively. The EC50 in assay [1] worked out at 0.044 nM; in assay [4] it was 18.6 nM. The binding result with mouse B7-H4-Fc [11] is on record as “no binding (tested: axis value -8 (log scale labelled nM))”; with mouse B7-H4-his, “no binding (tested: axis value -8 (labelled log nM))”; in assay [13], “no binding”; in assay [15], “no binding”; in assay [16], “no binding (tested: axis value -7 (log scale labelled nM))”; in assay [8], “no binding (tested: axis value -8 (labelled log nM))”. The “EC50 (read off the curve)” value in the assay with human B7-H4-Fc [12] is about 7 ng/mL; in assay [14] it was about 0.01 µg/mL.
